From patent US20140105889A1 (published 2014)

What was measured:
[1] = target: T1, human FcγRIIIa(F) (human, UniProt P08637 17-208, limits assumed); test: SPR (Biacore), captured antibody, FcγR analyte; bound/captured amount vs control x100
T1 construct: also called FcgRIIIaF; FcγRIIIa allotype F158
Protocol: Interaction between each modified antibody and Fcγ receptor prepared in the manner described above was analyzed using the Biacore T100 (GE Healthcare), Biacore T200 (GE Healthcare), Biacore A100 or Biacore 4000. HBS-EP+ (GE Healthcare) was used for the running buffer, and measurements were carried out at 25° C. The chips used were chips in which antigen peptides, Protein A (Thermo Scientific), Protein A/G (Thermo Scientific) or Protein L (ACTIGEN or BioVision) were immobilized on the Series S Sensor Chip CM5 (GE Healthcare) or Series S Sensor Chip CM4 (GE Healthcare) by amine coupling, or chips in which preliminarily biotinylated antigen peptides were allowed to interact and then immobilized on the Series S Sensor Chip SA (certified) (GE Healthcare). The target antibodies were captured on these sensor chips, Fcγ receptor diluted with the running buffer was allowed to interact, followed by measurement of the amount of bound antibody. The amounts bound were compared between antibodies. However, since the amount of Fcγ receptor bound depends on the amount of captured antibody, the values used for comparison were first corrected by dividing the amount of Fcγ receptor bound by the captured amount of each antibody. Through reaction with 10 mM glycine-HCl at pH 1.5, the sensor chips were regenerated by washing off antibody captured on the sensor chips and used repeatedly.

[2] = target: T2, mouse FcRn (mouse, UniProt Q61559 22-297, limits assumed); test: SPR (Biacore), mouse FcRn, pH 7.0
T2 construct: Soluble analyte in Biacore; also called mFcRn
T2 sequence (looked up) 1: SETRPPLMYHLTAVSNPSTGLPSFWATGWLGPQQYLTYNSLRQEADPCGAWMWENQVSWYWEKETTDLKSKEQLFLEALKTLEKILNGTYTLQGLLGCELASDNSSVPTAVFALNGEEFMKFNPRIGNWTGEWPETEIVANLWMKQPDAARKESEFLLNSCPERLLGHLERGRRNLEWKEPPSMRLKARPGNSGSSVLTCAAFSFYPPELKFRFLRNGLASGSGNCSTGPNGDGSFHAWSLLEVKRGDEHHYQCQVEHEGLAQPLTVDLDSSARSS
T2 sequence (looked up) 2: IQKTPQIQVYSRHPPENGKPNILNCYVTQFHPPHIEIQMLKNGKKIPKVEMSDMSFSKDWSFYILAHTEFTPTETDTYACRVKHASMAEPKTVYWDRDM
Protocol: The binding between antibody and mouse FcRn was kinetically analyzed using Biacore T100 (GE Healthcare). An appropriate amount of protein L (ACTIGEN) was immobilized onto Sensor chip CM4 (GE Healthcare) by the amino coupling method, and the chip was allowed to capture an antibody of interest. Then, diluted FcRn solutions and running buffer (as a reference solution) were injected to allow mouse FcRn to interact with the antibody captured on the sensor chip. The running buffer used contains 50 mmol/l sodium phosphate, 150 mmol/l NaCl, and 0.05% (w/v) Tween20 (pH 7.4). FcRn was diluted using each buffer. The sensorchip was regenerated using 10 mmol/l glycine-HCl (pH 1.5). Assays were carried out exclusively at 25 degrees C. The association rate constant ka (1/Ms) and dissociation rate constant kd (1/s), both of which are kinetic parameters, were calculated based on the sensorgrams obtained in the assays, and the KD (M) of each antibody for mouse FcRn was determined from these values. Each parameter was calculated using Biacore T100 Evaluation Software (GE Healthcare).

[3] = target: T3, mouse FcγRIV (mouse); test: SPR (Biacore), antibody captured on Protein L, mouse FcγR as analyte, pH 7.4, 25 C
T3 construct: Bought soluble receptor; also called mFcgRIV; mFcgR IV
Protocol: Binding activity between the antibodies and mouse FcγRI, FcγRII, FcγRIII and FcγRIV (R&D Systems, Sin θ Biological) (hereinafter referred to as mouse FcγRs) was evaluated using the Biacore T100 or T200 (GE Healthcare). The antibodies being tested were captured by Protein L (ACTIGEN) that was immobilized in suitable amounts on the CM4 Sensor Chip (GE Healthcare) by amine coupling. Next, the diluted mouse FcγRs and a running buffer used as a blank were injected to allow interaction with the antibody captured on the sensor chip. A buffer consisting of 20 mmol/L ACES, 150 mmol/L NaCl and 0.05% (w/v) Tween 20 (pH 7.4) was used for the running buffer, and this buffer was also used to dilute the mouse FcγRs. 10 mmol/L glycine-HCl (pH 1.5) was used to regenerate the sensor chip. All measurements were carried out at 25° C.

[4] = target: T4, FcγRIIb (human, UniProt P31994 43-217, limits assumed); test: ratio of SPR KD values of this variant (FcγRIIaH over FcγRIIb)
T4 construct: also called FcγIIB; FcgRIIb
T4 sequence: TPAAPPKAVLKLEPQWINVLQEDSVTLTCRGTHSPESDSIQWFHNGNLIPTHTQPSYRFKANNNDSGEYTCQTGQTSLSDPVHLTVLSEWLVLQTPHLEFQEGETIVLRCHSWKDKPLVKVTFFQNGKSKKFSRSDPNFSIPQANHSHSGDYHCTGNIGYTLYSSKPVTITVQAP
Description: (§1) Furthermore, KD(IIaR)/KD(IIb) and KD(IIaH)/KD(IIb) in the table respectively represent the value obtained by dividing the KD value of each variant for FcγRIIaR by the KD value of each variant for FcγRIIb, and the value obtained by dividing the KD value of each variant for FcγRIIaH by the KD value of each variant for FcγRIIb.

[5] = target: T4, FcγRIIb; test: ratio of SPR KD values of this variant (FcγRIIaR over FcγRIIb)
Description: as §1

[6] = target: T5, FcγRIIa type H (human, UniProt P12318 36-217); test: SPR (Biacore), captured antibody, FcγR as analyte, method of Example 14
T5 construct: also called FcγRIIaH; FcγRIIa(H)
T5 sequence: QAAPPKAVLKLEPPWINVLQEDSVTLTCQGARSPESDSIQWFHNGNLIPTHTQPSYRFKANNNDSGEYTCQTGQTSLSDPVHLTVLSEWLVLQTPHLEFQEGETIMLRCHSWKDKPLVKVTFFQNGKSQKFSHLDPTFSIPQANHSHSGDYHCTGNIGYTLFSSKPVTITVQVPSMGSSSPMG

[7] = target: T4, FcγRIIb; test: as above
[8] = target: T6, FcγRIIIa type V (human, UniProt P08637 17-208, limits assumed); test: as above
T6 construct: also called FcγRIIIaV; FcγRIIIa(V)

[9] = target: T7, FcγRIa (human, UniProt P12314 16-292, limits assumed); test: as above
T7 construct: also called CD64; FcgRIa
T7 sequence (P12314 16-292 limits assumed): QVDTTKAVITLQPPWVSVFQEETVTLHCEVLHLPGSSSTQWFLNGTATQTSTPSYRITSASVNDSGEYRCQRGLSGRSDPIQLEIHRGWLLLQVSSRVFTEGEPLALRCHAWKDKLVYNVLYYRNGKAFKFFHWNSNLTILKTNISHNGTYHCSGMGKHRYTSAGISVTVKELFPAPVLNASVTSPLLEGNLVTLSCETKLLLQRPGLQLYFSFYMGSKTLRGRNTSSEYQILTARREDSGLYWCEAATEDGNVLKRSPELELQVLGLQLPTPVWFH

[10] = target: T8, human FcγRIa (human, UniProt P12314 16-292, limits assumed); test: SPR (Biacore), antibody captured on the chip, FcγR as analyte
T8 construct: also called CD64

[11] = target: T9, human FcγRIIa type R (allotype R131) (human, UniProt P12318 36-217); test: as above
T9 construct: also called FcγRIIaR; FcγRIIa(R)
T9 chain: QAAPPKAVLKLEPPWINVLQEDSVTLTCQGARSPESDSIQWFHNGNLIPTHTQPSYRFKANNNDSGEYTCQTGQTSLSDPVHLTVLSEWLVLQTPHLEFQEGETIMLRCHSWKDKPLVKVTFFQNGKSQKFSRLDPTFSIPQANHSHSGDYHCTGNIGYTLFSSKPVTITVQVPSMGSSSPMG

[12] = target: T10, human FcγRIIa type H (allotype H131) (human, UniProt P12318 36-217); test: as above
T10 construct: also called FcγRIIaH; FcγRIIa(H)
T10 sequence: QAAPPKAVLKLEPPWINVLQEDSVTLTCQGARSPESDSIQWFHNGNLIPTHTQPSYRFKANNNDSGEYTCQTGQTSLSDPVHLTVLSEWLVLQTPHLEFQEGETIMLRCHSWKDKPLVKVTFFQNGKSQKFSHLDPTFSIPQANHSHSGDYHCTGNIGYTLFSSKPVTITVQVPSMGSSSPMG

[13] = target: T11, human FcγRIIb (human, UniProt P31994 43-217); test: as above
T11 construct: also called FcγIIB
T11 sequence: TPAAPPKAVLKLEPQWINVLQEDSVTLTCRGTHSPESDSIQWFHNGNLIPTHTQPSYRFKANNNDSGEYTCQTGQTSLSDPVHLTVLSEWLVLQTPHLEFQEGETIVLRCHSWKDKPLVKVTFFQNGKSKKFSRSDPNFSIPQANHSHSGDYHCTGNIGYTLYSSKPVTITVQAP

[14] = target: T11, human FcγRIIb; test: SPR (Biacore); KD of parent IL6R-B3/IL6R-L for FcγRIIb divided by KD of the variant for FcγRIIb
Description: as §1

[15] = target: T12, FcγRIIb (human, UniProt P31994 43-217, limits assumed); test: SPR (Biacore); ratio against the parent IL6R-B3/IL6R-L
T12 construct: Soluble analyte in Biacore; also called FcgRIIb; FcγIIB
T12 sequence: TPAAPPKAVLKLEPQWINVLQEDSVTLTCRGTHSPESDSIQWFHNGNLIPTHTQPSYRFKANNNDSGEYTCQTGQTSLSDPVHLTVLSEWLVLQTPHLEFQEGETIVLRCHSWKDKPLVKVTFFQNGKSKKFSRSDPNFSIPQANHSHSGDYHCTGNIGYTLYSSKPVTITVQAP
Protocol: (§2) Next, interaction between these antibodies and FcγR was analyzed kinetically using the Biacore T100 (GE Healthcare). The interaction was measured at a temperature of 25° C. using HBS-EP+ (GE Healthcare) for the running buffer. The Series S Sensor Chip CM5 (GE Healthcare) was used after immobilizing Protein A by amine coupling. […] Antibody captured on the chip was washed by allowing 10 mM glycine-HCl (pH 1.5) to react following measurement. The chip regenerated in this manner was used repeatedly. The dissociation constant KD (mol/L) was calculated from the association rate constant ka (L/mol/s) and dissociation rate constant kd (1/s) as calculated by global-fitting the measurement results with a 1:1 Langmuir binding model using the Biacore

[16] = target: T13, FcγRIa (human, UniProt P12314 16-292, limits assumed); test: SPR (Biacore), antibody captured on chip, FcγR as analyte, method of Example 14
T13 construct: Soluble analyte in Biacore; also called FcgRIa; CD64
T13 sequence (P12314 16-292 limits assumed): as the sequence (P12314 16-292 limits assumed) above
Protocol: as §2

[17] = target: T14, FcγRIIa type R (human, UniProt P12318 36-217); test: as above
T14 construct: Soluble analyte in Biacore; also called FcγRIIaR; FcγRIIa(R)
T14 chain: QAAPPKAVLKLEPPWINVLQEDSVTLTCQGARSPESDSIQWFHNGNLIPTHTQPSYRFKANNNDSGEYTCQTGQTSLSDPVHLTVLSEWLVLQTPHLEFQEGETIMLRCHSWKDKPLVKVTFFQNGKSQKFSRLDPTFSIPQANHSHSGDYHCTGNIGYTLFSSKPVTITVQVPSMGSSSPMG
Protocol: as §2

[18] = target: T15, FcγRIIa type H (human, UniProt P12318 36-217); test: as above
T15 construct: Soluble analyte in Biacore; also called FcγRIIaH; FcγRIIa(H)
T15 sequence: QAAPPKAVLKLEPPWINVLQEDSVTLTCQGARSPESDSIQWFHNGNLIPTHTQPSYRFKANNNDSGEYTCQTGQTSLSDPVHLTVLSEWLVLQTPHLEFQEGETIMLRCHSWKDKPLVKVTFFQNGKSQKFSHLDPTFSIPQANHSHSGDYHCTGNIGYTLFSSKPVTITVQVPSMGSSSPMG
Protocol: as §2

[19] = target: T12, FcγRIIb; test: as above
Protocol: as §2

T3 sequence (A0A0B4J1G0 21-203): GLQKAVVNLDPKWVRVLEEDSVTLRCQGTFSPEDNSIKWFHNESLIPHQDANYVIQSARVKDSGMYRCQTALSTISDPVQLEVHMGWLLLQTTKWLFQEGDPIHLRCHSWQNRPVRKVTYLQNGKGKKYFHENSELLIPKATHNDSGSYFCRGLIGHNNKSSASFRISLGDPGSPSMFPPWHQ
T8 sequence (P12314 16-292 limits assumed): as the sequence (P12314 16-292 limits assumed) above
T6 sequence (P08637 other isoform, or with tags, fused parts or gaps limits assumed): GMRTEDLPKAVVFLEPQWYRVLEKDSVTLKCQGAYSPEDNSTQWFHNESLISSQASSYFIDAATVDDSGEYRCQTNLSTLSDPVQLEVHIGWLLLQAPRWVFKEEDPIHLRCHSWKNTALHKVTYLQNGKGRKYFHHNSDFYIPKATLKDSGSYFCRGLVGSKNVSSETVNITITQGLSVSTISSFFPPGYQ
T1 sequence (P08637 other isoform, or with tags, fused parts or gaps limits assumed): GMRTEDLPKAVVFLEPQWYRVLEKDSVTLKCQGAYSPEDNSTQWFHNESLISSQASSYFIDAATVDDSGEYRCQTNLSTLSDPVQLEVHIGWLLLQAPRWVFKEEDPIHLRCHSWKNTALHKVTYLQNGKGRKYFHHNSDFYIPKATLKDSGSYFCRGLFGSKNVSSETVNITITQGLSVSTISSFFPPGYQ

B1: GpH7-B3 D265S/GpL16-k0 (antibody, human IgG1)
heavy: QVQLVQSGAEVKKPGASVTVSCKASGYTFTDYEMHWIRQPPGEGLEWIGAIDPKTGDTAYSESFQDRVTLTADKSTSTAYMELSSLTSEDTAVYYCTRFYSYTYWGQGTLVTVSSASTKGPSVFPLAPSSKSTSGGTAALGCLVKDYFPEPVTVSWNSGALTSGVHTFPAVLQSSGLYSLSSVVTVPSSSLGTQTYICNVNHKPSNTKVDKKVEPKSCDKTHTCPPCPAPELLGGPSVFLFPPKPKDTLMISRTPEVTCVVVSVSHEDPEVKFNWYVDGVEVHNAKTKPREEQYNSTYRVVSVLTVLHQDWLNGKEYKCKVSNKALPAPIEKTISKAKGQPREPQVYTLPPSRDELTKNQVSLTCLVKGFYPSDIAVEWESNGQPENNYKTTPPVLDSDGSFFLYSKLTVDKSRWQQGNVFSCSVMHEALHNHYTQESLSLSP
light: DIVMTQSPLSLPVTPGEPASISCQASESLVHSNRNTYLHWYLQKPGQSPQLLIYKVSNRFSGVPDRFSGSGSGTDFTLKISRVEAEDVGVYYCSQNTHVPPTFGQGTKVEIE
notes: B3 variant of anti-glypican-3 IgG1; substitution in EU numbering; also called B3 variant
relative binding activity [1]: 2 % of GpH7-B3/GpL16-k0

B2: antibody with mPM1H-mIgG1 heavy chain and L(WT)-CK light chain (antibody)
heavy: DVQLQESGPVLVKPSQSLSLTCTVTGYSITSDHAWSWIRQFPGNKLEWMGYISYSGITTYNPSLKSRISITRDTSKNQFFLQLNSVTTGDTSTYYCARSLARTTAMDYWGQGTSVTVSSAKTTPPSVYPLAPGSAAQTNSMVTLGCLVKGYFPEPVTVTWNSGSLSSGVHTFPAVLQSDLYTLSSSVTVPSSTWPSETVTCNVAHPASSTKVDKKIVPRDCGCKPCICTVPEVSSVFIFPPKPKDVLTITLTPKVTCVVVDISKDDPEVQFSWFVDDVEVHTAQTQPREEQFNSTFRSVSELPIMHQDWLNGKEFKCRVNSAAFPAPIEKTISKTKGRPKAPQVYTIPPPKEQMAKDKVSLTCMITDFFPEDITVEWQWNGQPAENYKNTQPIMDTDGSYFVYSKLNVQKSNWEAGNTFTCSVLHEGLHNHHTEKSLSHSPGK
light: not shown
notes: Natural mouse IgG1 constant region; In the Biacore assays the heavy chain was paired with L(WT)-CK; also called mPM1-mIgG1; copies: 2 + 2
binding result [2]: no binding | BINDING AMOUNT (RU) [3]: -3.5 RU

B3: IL6R-BP179/IL6R-L (antibody, human IgG1)
heavy: QVQLQESGPGLVKPSETLSLTCAVSGHSISHDHAWSWVRQPPGEGLEWIGFISYSGITNYNPSLQGRVTISRDNSKNTLYLQMNSLRAEDTAVYYCARSLARTTAMDYWGEGTLVTVSSASTKGPSVFPLAPSSKSTSGGTAALGCLVKDYFPEPVTVSWNSGALTSGVHTFPAVLQSSGLYSLSSVVTVPSSSLGTQTYICNVNHKPSNTKVDKKVEPKSCDKTHTCPPCPAPELLGDDSVFLFPPKPKDTLMISRTPEVTCVVVDVSHEDGEVKFNWYVDGVEVHNAKTKPREEQYNSTYRVVSVLTVLHQDWLNGKEYKCKVSNAALPKPIEKTISKAKGQPREPQVYTLPPSRDELTKNQVSLTCLVKGFYPSDIAVEWESNGQPENNYKTTPPVLDSDGSFFLYSKLTVDKSRWQQGNVFSCSVMHEALHNHYTQESLSLSP
light: DIQMTQSPSSLSASVGDRVTITCRASQDISSYLNWYQQKPGKAPKLLIYYTSRLHSGVPSRFSGSGSGTDFTFTISSLQPEDIATYYCQQGNTLPYTFGQGTKVEIK
notes: EU numbering
KD (IIaH)/KD (IIb) [4]: 191 | KD (IIaR)/KD (IIb) [5]: 16.7 | Kd [6]: 1600 nM | Kd [7]: 64 nM | Kd [8]: 55000 nM

B4: IL6R-BP180/IL6R-L (antibody, human IgG1)
heavy: QVQLQESGPGLVKPSETLSLTCAVSGHSISHDHAWSWVRQPPGEGLEWIGFISYSGITNYNPSLQGRVTISRDNSKNTLYLQMNSLRAEDTAVYYCARSLARTTAMDYWGEGTLVTVSSASTKGPSVFPLAPSSKSTSGGTAALGCLVKDYFPEPVTVSWNSGALTSGVHTFPAVLQSSGLYSLSSVVTVPSSSLGTQTYICNVNHKPSNTKVDKKVEPKSCDKTHTCPPCPAPELLGDDSVFLFPPKPKDTLMISRTPEVTCVVVDVSHEDGEVKFNWYVDGVEVHNAKTKPREEQYNSTYRVVSVLTVLHQDWLNGKEYKCKVSNKALPKPIEKTISKAKGQPREPQVYTLPPSRDELTKNQVSLTCLVKGFYPSDIAVEWESNGQPENNYKTTPPVLDSDGSFFLYSKLTVDKSRWQQGNVFSCSVMHEALHNHYTQESLSLSP
light: DIQMTQSPSSLSASVGDRVTITCRASQDISSYLNWYQQKPGKAPKLLIYYTSRLHSGVPSRFSGSGSGTDFTFTISSLQPEDIATYYCQQGNTLPYTFGQGTKVEIK
notes: EU numbering
KD (IIaH)/KD (IIb) [4]: 290 | KD (IIaR)/KD (IIb) [5]: 18.6 | Kd [9]: 96 nM | Kd [6]: 1600 nM

B5: IL6R-BP200/IL6R-L (antibody, human IgG1)
heavy: QVQLQESGPGLVKPSETLSLTCAVSGHSISHDHAWSWVRQPPGEGLEWIGFISYSGITNYNPSLQGRVTISRDNSKNTLYLQMNSLRAEDTAVYYCARSLARTTAMDYWGEGTLVTVSSASTKGPSVFPLAPSSKSTSGGTAALGCLVKDYFPEPVTVSWNSGALTSGVHTFPAVLQSSGLYSLSSVVTVPSSSLGTQTYICNVNHKPSNTKVDKKVEPKSCDKTHTCPPCPAPDYLGDDSVFLFPPKPKDTLMISRTPEVTCVVVDVSHEDGEVKFNWYVDGVEVHNAKTKPREEQYNSTYRVVSVLTVLHQDWLNGKEYKCKVSNDALPRPIEKTISKAKGQPREPQVYTLPPSRDELTKNQVSLTCLVKGFYPSDIAVEWESNGQPENNYKTTPPVLDSDGSFFLYSKLTVDKSRWQQGNVFSCSVMHEALHNHYTQESLSLSP
light: DIQMTQSPSSLSASVGDRVTITCRASQDISSYLNWYQQKPGKAPKLLIYYTSRLHSGVPSRFSGSGSGTDFTFTISSLQPEDIATYYCQQGNTLPYTFGQGTKVEIK
notes: Anti-human IL-6 receptor human IgG1 variant; uncertain; copies: 2 + 2
Kd [10]: 33 nM | Kd [11]: 630 nM | Kd [12]: 4200 nM | Kd [13]: 34 nM | KD(IIb) of the parent polypeptide/KD(IIb) of the altered polypeptide [14]: 91.2

B6: IL6R-BP214/IL6R-L (antibody, human IgG1)
heavy: QVQLQESGPGLVKPSETLSLTCAVSGHSISHDHAWSWVRQPPGEGLEWIGFISYSGITNYNPSLQGRVTISRDNSKNTLYLQMNSLRAEDTAVYYCARSLARTTAMDYWGEGTLVTVSSASTKGPSVFPLAPSSKSTSGGTAALGCLVKDYFPEPVTVSWNSGALTSGVHTFPAVLQSSGLYSLSSVVTVPSSSLGTQTYICNVNHKPSNTKVDKKVEPKSCDKTHTCPPCPAPDYLGDDSVFLFPPKPKDTLMISRTPEVTCVVVDVSHEDPEVKFNWYVDGVEVHNAKTKPREEQDNSTYRVVSVLTVLHQDWLNGKEYKCKVSNDALPKPIEKTISKAKGQPREPQVYTLPPSRDELTKNQVSLTCLVKGFYPSDIAVEWESNGQPENNYKTTPPVLDSDGSFFLYSKLTVDKSRWQQGNVFSCSVMHEALHNHYTQESLSLSP
light: DIQMTQSPSSLSASVGDRVTITCRASQDISSYLNWYQQKPGKAPKLLIYYTSRLHSGVPSRFSGSGSGTDFTFTISSLQPEDIATYYCQQGNTLPYTFGQGTKVEIK
notes: Anti-human IL-6 receptor IgG1 Fc variant
KD(IIb) of the parent polypeptide/KD(IIb) of the altered polypeptide [15]: 26.2 fold | Kd [16]: 59 nM | Kd [17]: 1700 nM | Kd [18]: 9200 nM | Kd [19]: 120 nM
